T1: ITGA2 protein on the surface of human tumor cells (human, UniProt P17301 30-1181)
T1 sequence (looked up): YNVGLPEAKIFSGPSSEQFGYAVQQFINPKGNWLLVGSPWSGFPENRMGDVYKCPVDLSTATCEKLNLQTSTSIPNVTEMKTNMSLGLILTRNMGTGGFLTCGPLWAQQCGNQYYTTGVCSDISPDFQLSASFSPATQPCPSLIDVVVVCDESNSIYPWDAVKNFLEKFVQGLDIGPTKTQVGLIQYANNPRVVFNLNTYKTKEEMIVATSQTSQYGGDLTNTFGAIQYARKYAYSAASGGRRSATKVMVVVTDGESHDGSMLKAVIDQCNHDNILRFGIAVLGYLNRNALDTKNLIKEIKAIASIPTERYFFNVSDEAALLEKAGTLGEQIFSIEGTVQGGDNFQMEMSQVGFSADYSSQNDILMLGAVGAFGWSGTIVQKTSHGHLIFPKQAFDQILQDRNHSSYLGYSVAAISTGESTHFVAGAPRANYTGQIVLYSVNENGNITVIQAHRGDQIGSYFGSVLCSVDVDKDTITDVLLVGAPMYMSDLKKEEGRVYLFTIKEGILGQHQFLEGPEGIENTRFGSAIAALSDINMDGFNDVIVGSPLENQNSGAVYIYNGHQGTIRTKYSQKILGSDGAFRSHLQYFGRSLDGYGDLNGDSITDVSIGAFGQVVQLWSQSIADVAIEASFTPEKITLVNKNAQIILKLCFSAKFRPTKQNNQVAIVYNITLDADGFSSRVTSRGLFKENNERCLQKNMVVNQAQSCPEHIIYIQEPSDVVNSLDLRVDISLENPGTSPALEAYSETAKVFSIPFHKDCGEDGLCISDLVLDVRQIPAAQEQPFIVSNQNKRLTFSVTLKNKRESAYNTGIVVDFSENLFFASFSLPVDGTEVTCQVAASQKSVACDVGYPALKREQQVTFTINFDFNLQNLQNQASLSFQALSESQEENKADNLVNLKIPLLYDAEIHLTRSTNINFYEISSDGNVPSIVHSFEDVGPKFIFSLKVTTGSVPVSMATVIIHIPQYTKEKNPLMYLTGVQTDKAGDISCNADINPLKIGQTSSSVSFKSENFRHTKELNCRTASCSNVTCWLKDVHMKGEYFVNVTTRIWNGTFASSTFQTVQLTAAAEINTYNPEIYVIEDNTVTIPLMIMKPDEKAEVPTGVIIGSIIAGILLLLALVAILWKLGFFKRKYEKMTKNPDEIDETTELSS


Target: T1, ITGA2 protein on the surface of human …
Assay: cell-based or functional assay

Row | Binder | A431 cell killing IC50 [nM]
1 | FS002-A226-H3L4-vcMMAE (antibody, human IgG1, kappa, V domains shown, vc-MMAE, attachment residues not stated; vc-MMAE (mc-vc-PAB-MMAE) conjugated after TCEP reduction, DAR 3.8 per antibody; attachment residues not stated) VH: QLQLVQSGAEVKKPGASVKVSCKASGYTFTDYEIHWVRQAPGQGLEWIGAIDPETGGTNYNQKFNDRVTLTADTSISTAYMELSRLRSDDTAVYYCSRSGYYVSNYESYAMDYWGQGTTVTVSS VL: DIQLTQSPSSLSASVGDRVTITCRASQDIKSYLSWYQQKPGKAPKLLIYDTSNLASGVPSRFSGSGSGTDFTLTISSLQPEDFATYYCQQWSSYPFTFGGGTKLEIKR | 0.063
2 | FS002-A153-H5L5-vcMMAE (antibody, human IgG1, kappa, V domains shown, vc-MMAE, attachment residues not stated; vc-MMAE (mc-vc-PAB-MMAE) conjugated after TCEP reduction, DAR 4.0 per antibody; attachment residues not stated) VH: QVQLVQSGAEVKKPGASVKVSCKASGYTFTDYEMHWVRQAPGQGLEWMGTIDPETGGTTYAQKFQGRVTMTADTSISTAYMELSRLRSDDTAVYYCARSGYYVSSYESYAMDYWGQGTTVTVSS VL: EIVMTQSPPTLSLSPGERVTMSCRSSQSLLNSGNQKNYLTWYQQKPGQAPRLLIYGASTRESGVPARFSGSGSGTDFTLTISSLQPEDFAVYYCQNDYSYPFTFGGGTKLEIKR | 0.073
3 | FS002-A103-H4L4-vcMMAE (antibody, human IgG1, kappa, V domains shown, vc-MMAE, attachment residues not stated; vc-MMAE (mc-vc-PAB-MMAE) conjugated after TCEP reduction, DAR 3.7 per antibody; attachment residues not stated) VH: QVQLVQSGAEVKKPGASVKVSCKASGYTFTDYEMHWVRQAPGQGLEWMGVIDPETGGTTYNQKFQGRVTLTADTSISTAYMELSRLRSDDTAVYYCSRSGYYVSSYESYAMDYWGQGTTVTVSS VL: EIVMTQSPPTLSLSPGERVTLSCRASENVGTYVSWYQQKPGQAPRLLIYGASTRESGIPARFSGSGSGTDFTLTISSLQPEDFAVYYCQNDYSYPFTFGGGTKLEIKR | 0.052
4 | FS002-A103-H4L3-vcMMAE (antibody, human IgG1, kappa, V domains shown, vc-MMAE, attachment residues not stated; vc-MMAE (mc-vc-PAB-MMAE) conjugated after TCEP reduction, DAR 3.5 per antibody; attachment residues not stated) VH: QVQLVQSGAEVKKPGASVKVSCKASGYTFTDYEMHWVRQAPGQGLEWMGVIDPETGGTTYNQKFQGRVTLTADTSISTAYMELSRLRSDDTAVYYCSRSGYYVSSYESYAMDYWGQGTTVTVSS VL: EIVMTQSPPTMSMSPGERVTLSCKASENVGTYVSWYQQKPGQAPRLLIYGASTRESGVPARFSGSGSGTDFTLTISSLQPEDFAVYYCQNDYSYPFTFGGGTKLEIKR | 0.07
5 | FS002-A153-H5L2-vcMMAE (antibody, human IgG1, kappa, V domains shown, vc-MMAE, attachment residues not stated; vc-MMAE (mc-vc-PAB-MMAE) conjugated after TCEP reduction, DAR 3.5 per antibody; attachment residues not stated) VH: QVQLVQSGAEVKKPGASVKVSCKASGYTFTDYEMHWVRQAPGQGLEWMGTIDPETGGTTYAQKFQGRVTMTADTSISTAYMELSRLRSDDTAVYYCARSGYYVSSYESYAMDYWGQGTTVTVSS VL: DIVMTQSPDSLAVSLGERVTMNCKSSQSLLNSGNQKNYLTWYQQKPGQPPKLLIYGASTRESGVPDRFSGSGSGTDFTLTISSLQAEDVAVYYCQNDYSYPFTFGGGTKLEIKR | 0.028
6 | FS002-A103-H4L2-vcMMAE (antibody, human IgG1, kappa, V domains shown, vc-MMAE, attachment residues not stated; vc-MMAE (mc-vc-PAB-MMAE) conjugated after TCEP reduction, DAR 3.5 per antibody; attachment residues not stated) VH: QVQLVQSGAEVKKPGASVKVSCKASGYTFTDYEMHWVRQAPGQGLEWMGVIDPETGGTTYNQKFQGRVTLTADTSISTAYMELSRLRSDDTAVYYCSRSGYYVSSYESYAMDYWGQGTTVTVSS VL: EIVMTQSPKTMSMSPGERVTLSCKASENVGTYVSWYQQKPGQAPRLLIYGASTRESGVPDRFSGSGSGTDFTLTISSLQPEDFAVYYCQNDYSYPFTFGGGTKLEIKR | 0.061
